The Immune Epitope Database (IEDB)
One block for each sequence: values may come before it.

How the values were obtained:
HLA-A*26:01 = test: IEDB peptide-MHC binding, purified MHC/competitive/fluorescence; filed as Kd, often an IC50 or EC50 that approximates it; ≥ and ≤ were set here for values at or beyond the usual limits of such assays
HLA-A*30:01 = test: IEDB peptide-MHC binding, purified MHC/direct/fluorescence; filed as Kd, often an IC50 or EC50 that approximates it; ≥ and ≤ were set here for values at or beyond the usual limits of such assays; details: source organism: West Nile virus strain PTRoxo
HLA-B*51:01 = test: as above; details: source organism: West Nile virus
HLA-A*25:01 = test: as above; details: source organism: West Nile virus strain PTRoxo
HLA-B*57:01 = test: as above; details: source organism: West Nile virus strain PTRoxo
HLA-A*80:01 = test: as above
HLA-A*29:02 = test: as above; details: source organism: West Nile virus strain PTRoxo
HLA-B*15:01 [1] = test: as above; details: source organism: West Nile virus strain PTRoxo
HLA-B*44:02 = test: as above; details: source organism: West Nile virus strain PTRoxo
HLA-B*58:01 = test: as above; details: source organism: West Nile virus strain PTRoxo
HLA-B*18:01 [2] = test: as above; details: source organism: West Nile virus strain PTRoxo
HLA-B*45:06 = test: IEDB peptide-MHC binding, purified MHC/competitive/fluorescence; filed as Kd, often an IC50 or EC50 that approximates it; ≥ and ≤ were set here for values at or beyond the usual limits of such assays
HLA-B*15:42 = test: as above
HLA-B*27:20 = test: as above
HLA-B*40:13 = test: as above; details: source organism: Methylibium petroleiphilum PM1
HLA-C*14:02 = test: as above; details: source organism: Methylibium petroleiphilum PM1
HLA-B*15:02 = test: as above; details: source organism: Methylibium petroleiphilum PM1
HLA-C*06:02 [3] = test: as above; details: source organism: Methylibium petroleiphilum PM1
HLA-B*83:01 = test: as above
HLA-C*15:02 = test: IEDB peptide-MHC binding, purified MHC/direct/fluorescence; filed as Kd, often an IC50 or EC50 that approximates it; ≥ and ≤ were set here for values at or beyond the usual limits of such assays; details: source organism: Methylibium petroleiphilum PM1
HLA-C*07:02 = test: as above; details: source organism: Methylibium petroleiphilum PM1
HLA-A*01:01 = test: IEDB peptide-MHC binding, purified MHC/competitive/fluorescence; filed as Kd, often an IC50 or EC50 that approximates it; ≥ and ≤ were set here for values at or beyond the usual limits of such assays; details: source organism: Human immunodeficiency virus 1
HLA-B*08:01 = test: as above; details: source organism: Human immunodeficiency virus 1
HLA-A*11:01 = test: as above; details: source organism: Human immunodeficiency virus 1
HLA-B*08:03 = test: as above; details: source organism: Human immunodeficiency virus 1
HLA-A*26:03 = test: as above; details: source organism: Human immunodeficiency virus 1
HLA-A*26:02 = test: as above; details: source organism: Human immunodeficiency virus 1
HLA-B*15:09 = test: as above; details: source organism: Human immunodeficiency virus 1
HLA-B*15:01 [4] = test: as above; details: source organism: Human immunodeficiency virus 1
HLA-B*18:01 [5] = test: as above; details: source organism: Human immunodeficiency virus 1
HLA-B*40:02 = test: IEDB peptide-MHC binding, cellular MHC/competitive/fluorescence; ≥ and ≤ were set here for values at or beyond the usual limits of such assays; details: source organism: Homo sapiens
HLA-A*24:02 = test: IEDB peptide-MHC binding, purified MHC/competitive/fluorescence; filed as Kd, often an IC50 or EC50 that approximates it; ≥ and ≤ were set here for values at or beyond the usual limits of such assays; details: source organism: Hepacivirus hominis
HLA-C*04:01 = test: IEDB peptide-MHC binding, purified MHC/direct/fluorescence; filed as Kd, often an IC50 or EC50 that approximates it; ≥ and ≤ were set here for values at or beyond the usual limits of such assays; details: source organism: Japanese encephalitis virus
HLA-B*48:01 = test: as above; details: source organism: Burkholderia mallei
HLA-B*27:05 = test: as above; details: source organism: Burkholderia mallei
HLA-B*73:01 = test: as above; details: source organism: Burkholderia mallei ATCC 23344
HLA-C*06:02 [6] = test: as above; details: source organism: human gammaherpesvirus 4
[7] = source organism: West Nile virus
[8] = source organism: Methylibium petroleiphilum PM1
[9] = source organism: Hepacivirus hominis
[10] = source organism: human gammaherpesvirus 4

Sequence: EIPDVLNSL
Kd (HLA-A*26:01; [7]): 0.277 µM | Kd (HLA-A*30:01): ≥ 20 µM | Kd (HLA-B*51:01): ≥ 20 µM | Kd (HLA-A*25:01): 0.023 µM | Kd (HLA-B*57:01): ≥ 20 µM | Kd (HLA-A*80:01; source organism: West Nile virus strain PTRoxo): ≥ 20 µM | Kd (HLA-A*29:02): ≥ 20 µM | Kd (HLA-B*15:01 [1]): ≥ 20 µM | Kd (HLA-B*44:02): ≥ 20 µM | Kd (HLA-B*58:01): ≥ 20 µM | Kd (HLA-B*18:01 [2]): ≥ 20 µM

Kd (HLA-B*45:06; [8]): ≥ 5 µM | Kd (HLA-B*15:42; [8]): ≥ 5 µM | Kd (HLA-B*27:20; [8]): 0.0003 µM | Kd (HLA-B*40:13): 0.0088 µM | Kd (HLA-C*14:02): 0.0132 µM | Kd (HLA-B*15:02): 0.0144 µM | Kd (HLA-C*06:02 [3]): 0.513 µM | Kd (HLA-B*83:01; [8]): ≥ 5 µM | Kd (HLA-C*15:02): 2.18 µM | Kd (HLA-C*07:02): 0.448 µM
Sequence: FQMGGIGPM

Sequence: GTEEIKSLY
Kd (HLA-A*01:01): 0.0138 µM | Kd (HLA-A*26:01; source organism: Human immunodeficiency virus 1): 1.57 µM | Kd (HLA-B*08:01): ≥ 20 µM | Kd (HLA-A*11:01): ≥ 20 µM | Kd (HLA-B*08:03): ≥ 20 µM | Kd (HLA-A*26:03): ≥ 20 µM | Kd (HLA-A*26:02): 1.21 µM | Kd (HLA-B*15:09): ≥ 20 µM | Kd (HLA-B*15:01 [4]): ≥ 20 µM | Kd (HLA-B*18:01 [5]): 0.0777 µM

IC50 (HLA-B*40:02): 1.9 µM
Sequence: KEQSPEPHL

Sequence: LLPRRGPRL
Kd (HLA-B*45:06; [9]): ≥ 5 µM | Kd (HLA-B*15:42; [9]): ≥ 5 µM | Kd (HLA-B*83:01; [9]): ≥ 5 µM | Kd (HLA-A*24:02): 0.09 µM

Sequence: QTDNQLAVF
Kd (HLA-C*04:01): ≥ 20 µM | Kd (HLA-A*80:01; [7]): ≥ 20 µM

Sequence: RRHGMAWRQ
Kd (HLA-B*48:01): ≥ 20 µM | Kd (HLA-B*27:05): 0.213 µM | Kd (HLA-B*73:01): 12 µM

Sequence: RRRKGWIPL
Kd (HLA-B*45:06; [10]): ≥ 5 µM | Kd (HLA-B*15:42; [10]): ≥ 5 µM | Kd (HLA-B*27:20; [10]): 0.0002 µM | Kd (HLA-B*83:01; [10]): ≥ 5 µM | Kd (HLA-C*06:02 [6]): ≥ 20 µM
